The record followed here is patent US20200031888.

This series has as its target C3b (Comptech), P01024.

Sequence of C3b (Comptech), P01024 (P01024 whole entry, looked up): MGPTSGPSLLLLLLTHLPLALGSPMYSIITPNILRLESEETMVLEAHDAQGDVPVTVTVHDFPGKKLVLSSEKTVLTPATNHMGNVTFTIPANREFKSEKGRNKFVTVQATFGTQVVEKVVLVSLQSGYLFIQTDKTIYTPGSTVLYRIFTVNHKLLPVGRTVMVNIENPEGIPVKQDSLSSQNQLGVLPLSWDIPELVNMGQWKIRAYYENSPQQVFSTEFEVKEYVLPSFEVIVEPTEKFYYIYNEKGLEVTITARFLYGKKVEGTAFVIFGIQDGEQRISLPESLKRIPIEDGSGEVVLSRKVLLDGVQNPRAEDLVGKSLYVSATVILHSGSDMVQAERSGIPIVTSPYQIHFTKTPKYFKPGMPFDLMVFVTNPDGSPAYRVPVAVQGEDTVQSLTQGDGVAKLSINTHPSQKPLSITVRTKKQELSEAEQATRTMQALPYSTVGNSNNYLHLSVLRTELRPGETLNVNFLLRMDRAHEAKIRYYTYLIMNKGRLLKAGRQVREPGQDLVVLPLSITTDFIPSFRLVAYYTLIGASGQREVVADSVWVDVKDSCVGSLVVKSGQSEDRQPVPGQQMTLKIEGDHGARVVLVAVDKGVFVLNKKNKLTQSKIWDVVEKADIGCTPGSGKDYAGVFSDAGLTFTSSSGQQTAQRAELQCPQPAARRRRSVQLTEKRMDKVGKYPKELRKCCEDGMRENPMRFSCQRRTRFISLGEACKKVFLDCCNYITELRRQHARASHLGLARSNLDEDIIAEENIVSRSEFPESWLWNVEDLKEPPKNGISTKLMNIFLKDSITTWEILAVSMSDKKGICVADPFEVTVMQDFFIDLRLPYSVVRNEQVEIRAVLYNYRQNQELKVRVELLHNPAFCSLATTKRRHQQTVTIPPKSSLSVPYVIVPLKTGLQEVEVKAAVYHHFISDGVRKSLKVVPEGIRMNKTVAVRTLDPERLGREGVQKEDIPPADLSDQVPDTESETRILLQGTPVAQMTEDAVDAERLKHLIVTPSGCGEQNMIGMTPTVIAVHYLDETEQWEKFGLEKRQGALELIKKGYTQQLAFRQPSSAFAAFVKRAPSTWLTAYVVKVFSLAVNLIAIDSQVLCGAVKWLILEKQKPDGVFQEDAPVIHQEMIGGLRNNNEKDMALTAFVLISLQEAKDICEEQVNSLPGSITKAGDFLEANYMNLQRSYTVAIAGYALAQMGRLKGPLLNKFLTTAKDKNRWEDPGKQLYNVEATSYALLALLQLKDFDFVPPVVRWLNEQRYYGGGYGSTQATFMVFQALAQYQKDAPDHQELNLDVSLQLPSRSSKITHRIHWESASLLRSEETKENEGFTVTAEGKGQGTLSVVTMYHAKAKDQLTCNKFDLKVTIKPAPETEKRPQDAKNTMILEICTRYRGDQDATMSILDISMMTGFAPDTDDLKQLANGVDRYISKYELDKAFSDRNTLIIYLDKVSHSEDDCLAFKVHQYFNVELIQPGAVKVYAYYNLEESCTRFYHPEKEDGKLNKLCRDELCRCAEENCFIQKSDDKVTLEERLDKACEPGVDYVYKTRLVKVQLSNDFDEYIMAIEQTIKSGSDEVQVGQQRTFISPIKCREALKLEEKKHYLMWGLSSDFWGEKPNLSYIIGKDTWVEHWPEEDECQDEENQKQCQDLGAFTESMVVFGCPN

B1: recombinant mature Complement Factor I made by in vitro furin cleavage of pro-rCFI (protein)
chain 1: KVTYTSQEDLVEKKCLAKKYTHLSCDKVFCQPWQRCIEGTCVCKLPYQCPKNGTAVCATNRRSFPTYCQQKSLECLHPGTKFLNNGTCTAEGKFSVSLKHGNTDSEGIVEVKLVDQDKTMFICKSSWSMREANVACLDLGFQQGADTQRRFKLSDLSINSTECLHVHCRGLETSLAECTFTKRRTMGYQDFADVVCYTQKADSPMDDFFQCVNGKYISQMKACDGINDCGDQSDELCCKACQGKGFHCKSGVCIPSQYQCNGEVDCITGEDEVGCAGFASVAQEETEILTADMDAERRRIKSLLPKLSCGVKNRMHI
chain 2: IVGGKRAQLGDLPWQVAIKDASGITCGGIYIGGCWILTAAHCLRASKTHRYQIWTTVVDWIHPDLKRIVIEYVDRIIFHENYNAGTYQNDIALIEMKKDGNKKDCELPRSIPACVPWSPYLFQPNDTCIVSGWGREKDNERVFSLQWGEVKLISNCSKFYGNRFYEKEMECAGTYDGSIDACKGDSGGPLVCMDANNVTYVWGVVSWGENCGKPEFPGVYTKVANYFDWISYHVGRPFISQYNV
Consider B1, for which the “C3b inactivation (cofactor) assay with CFH, western blot of alpha1 and alpha2 bands” value was “lane 8 which corresponds to a sample containing the in vitro cleaved mature rCFI, is the only sample containing bands that correspond to the α1 and α2 chains”; the “C3b inactivation assay, second western blot” value is given as “The activity of the in vitro cleaved rCFI can be seen to be comparable to sCFI”.

B2: recombinant precursor Complement Factor I (pro-rCFI), His-tagged, expressed in CHO cells (protein)
chain: KVTYTSQEDLVEKKCLAKKYTHLSCDKVFCQPWQRCIEGTCVCKLPYQCPKNGTAVCATNRRSFPTYCQQKSLECLHPGTKFLNNGTCTAEGKFSVSLKHGNTDSEGIVEVKLVDQDKTMFICKSSWSMREANVACLDLGFQQGADTQRRFKLSDLSINSTECLHVHCRGLETSLAECTFTKRRTMGYQDFADVVCYTQKADSPMDDFFQCVNGKYISQMKACDGINDCGDQSDELCCKACQGKGFHCKSGVCIPSQYQCNGEVDCITGEDEVGCAGFASVTQEETEILTADMDAERRRIKSLLPKLSCGVKNRMHIRRKRIVGGKRAQLGDLPWQVAIKDASGITCGGIYIGGCWILTAAHCLRASKTHRYQIWTTVVDWIHPDLKRIVIEYVDRIIFHENYNAGTYQNDIALIEMKKDGNKKDCELPRSIPACVPWSPYLFQPNDTCIVSGWGREKDNERVFSLQWGEVKLISNCSKFYGNRFYEKEMECAGTYDGSIDACKGDSGGPLVCMDANNVTYVWGVVSWGENCGKPEFPGVYTKVANYFDWISYHVGRPFISQYNV
Regarding B2, the “C3b cofactor assay, western blot” value is “only cleaved FI has activity, and Pro-FI is inactive”.

B3: serum CFI (Comptech) (protein)
chain: KVTYTSQEDLVEKKCLAKKYTHLSCDKVFCQPWQRCIEGTCVCKLPYQCPKNGTAVCATNRRSFPTYCQQKSLECLHPGTKFLNNGTCTAEGKFSVSLKHGNTDSEGIVEVKLVDQDKTMFICKSSWSMREANVACLDLGFQQGADTQRRFKLSDLSINSTECLHVHCRGLETSLAECTFTKRRTMGYQDFADVVCYTQKADSPMDDFFQCVNGKYISQMKACDGINDCGDQSDELCCKACQGKGFHCKSGVCIPSQYQCNGEVDCITGEDEVGCAGFASVTQEETEILTADMDAERRRIKSLLPKLSCGVKNRMHIRRKRIVGGKRAQLGDLPWQVAIKDASGITCGGIYIGGCWILTAAHCLRASKTHRYQIWTTVVDWIHPDLKRIVIEYVDRIIFHENYNAGTYQNDIALIEMKKDGNKKDCELPRSIPACVPWSPYLFQPNDTCIVSGWGREKDNERVFSLQWGEVKLISNCSKFYGNRFYEKEMECAGTYDGSIDACKGDSGGPLVCMDANNVTYVWGVVSWGENCGKPEFPGVYTKVANYFDWISYHVGRPFISQYNV
On to B3, for which the “C3b inactivation assay, positive control” value was “iC3b cleaved by incubation with mature sCFI”.
